Consider 1 protein from paper PMC4245941, “Timely binding of IHF and Fis to DARS2 regulates ATP–DnaA production and replication initiation” (Nucleic Acids Research, 2014).

This series concerns the molecule itself. Put plainly: native gel or EMSA; DnaA (ADP or ATP form) incubated at 30°C for 5 min in dissociation buffer (20 mM Tris-HCl pH 7.5, 100 mM potassium glutamate, 10 mM magnesium acetate, 2 mM ATP) with DARS2ΔRight or DARS2ΔRight/subFBS1 DNA (15 fmol) and poly (dI-dC), 5% PAGE; DnaA multimers form on the DNA; without or with IHF and Fis. Background: Mobility shift assays separate free from complexed probe on a gel.

B1: DnaA (wild type) (natural protein, Escherichia coli, UniProt P03004 1-467, looked up)
chain: MSLSLWQQCLARLQDELPATEFSMWIRPLQAELSDNTLALYAPNRFVLDWVRDKYLNNINGLLTSFCGADAPQLRFEVGTKPVTQTPQAAVTSNVAAPAQVAQTQPQRAAPSTRSGWDNVPAPAEPTYRSNVNVKHTFDNFVEGKSNQLARAAARQVADNPGGAYNPLFLYGGTGLGKTHLLHAVGNGIMARKPNAKVVYMHSERFVQDMVKALQNNAIEEFKRYYRSVDALLIDDIQFFANKERSQEEFFHTFNALLEGNQQIILTSDRYPKEINGVEDRLKSRFGWGLTVAIEPPELETRVAILMKKADENDIRLPGEVAFFIAKRLRSNVRELEGALNRVIANANFTGRAITIDFVREALRDLLALQEKLVTIDNIQKTVAEYYKIKVADLLSKRRSRSVARPRQMAMALAKELTNHSLPEIGDAFGGRDHTTVLHACRKIEQLREESHDIKEDFSNLIRTLSS
notes: DnaA, chromosomal replication initiator protein, Escherichia coli, wild type; Used loaded with ADP or ATP (not covalent); also called ADP–DnaA; ATP–DnaA
Take B1: the binding result is listed as “binds”.
